Source: doi:10.1101/2023.08.23.554525

Target: H1 hemagglutinin (A/New Caledonia/20/1999(H1N1)), recombinant HA trimer used for electron microscopy (influenza A virus A/New Caledonia/20/1999 (H1N1)) (UniProt Q6WG00)
Test: cryo-EM structure

“H1 hemagglutinin (A/New Caledonia/20/1999(H1N1)), recombinant HA trimer used for electron microscopy (from UniProt Q6WG00 1-565) (natural protein)” showed a stoichiometry N of 3.
